Results: PMC10006238
Where a chain is given by its changes, count along the chain named. In names and notes the source's numbering stands.

B1: apo-ACP5a (domain or fragment)
chain: GPGSAGRQEEIAEEVARLLAGVLYLEPDRLDPEETFLTLGVDSILGVEFVAAVNAAYPVGVKATALYDHPTPAAFARHIAESLGA
B2: acetoacetyl-ACP5a (domain or fragment)
chain: B1 chain
modifications: acetoacetyl form (acetoacetate as substrate mimic on the phosphopantetheine)
B3: acetoacetyl-ACP5b (domain or fragment)
chain: GPGSAVAVDPAPVARALREELARTLYCEPGDIDDEASFNTLGLDSILGVEFVAFVNQTYGLDEKAGILYDHPSLAALSRHVAGRAAPV
modifications: acetoacetyl form (acetoacetate as substrate mimic on the phosphopantetheine)
B4: HMG-ACP5a (domain or fragment)
chain: B1 chain
modifications: HMG form ((RS)-3-hydroxy-3-methylglutarate as substrate mimic on the phosphopantetheine)
B5: HMG-ACP5b (domain or fragment)
chain: B3 chain
modifications: HMG form ((RS)-3-hydroxy-3-methylglutarate as substrate mimic on the phosphopantetheine)
B6: methylcrotonyl-ACP5a (domain or fragment)
chain: B1 chain
modifications: methylcrotonyl form (3-methylcrotonate as substrate mimic on the phosphopantetheine)
B7: methylcrotonyl-ACP5b (domain or fragment)
chain: B3 chain
modifications: methylcrotonyl form (3-methylcrotonate as substrate mimic on the phosphopantetheine)
B8: apo-ACP5a E6761A (domain or fragment)
chain: B1 chain with E34A
B9: holo-ACP5a E6761A (domain or fragment)
chain: B1 chain with E34A
modifications: phosphopantetheine (holo form)
B10: apo-ACP5a L6764N (domain or fragment)
chain: B1 chain with L37N
B11: holo-ACP5a L6764N (domain or fragment)
chain: B1 chain with L37N
modifications: phosphopantetheine (holo form)
B12: apo-ACP5a E6761A/L6764N (domain or fragment)
chain: B1 chain with E34A, L37N
B13: holo-ACP5a E6761A/L6764N (domain or fragment)
chain: B1 chain with E34A, L37N
modifications: phosphopantetheine (holo form)
B14: apo-ACP5b (domain or fragment)
chain: B3 chain
B15: holo-ACP5b (domain or fragment)
chain: B3 chain
modifications: phosphopantetheine (Ppant) on S6871

How the values were obtained:
[1] = target: VirD (Streptomyces virginiae); experiment: SAXS; SEC-coupled SAXS (SWING beamline, Bio-SEC 100 Å column), 15 °C, 20 mM Tris-HCl pH 8.5, 300 mM NaCl, 5% glycerol, 50 μL at 5 mg/mL; curves compared with crystal structures or models (CRYSOL, SASREF)
[2] = target: VirD (Streptomyces virginiae); experiment: other fluorescence titration; tryptophan fluorescence quenching; VirC, VirD, VirD mutant or VirE at 5 μM in TE buffer (20 mM Tris-HCl pH 8.5, 2 mM EDTA), 25 °C, titrated with ACP ligand (0–150 μM); excitation 295 nm; one site-specific binding model; averaged data of two independent measurements
[3] = target: VirC (Streptomyces virginiae); experiment: as above
[4] = target: VirE (Streptomyces virginiae); experiment: SAXS; SEC-coupled SAXS (SWING beamline, Bio-SEC 100 Å column), 15 °C, 20 mM Tris-HCl pH 8.5, 300 mM NaCl, 5% glycerol, 50 μL at 5 mg/mL; curves compared with crystal structures or models (CRYSOL, SASREF)
[5] = target: VirE (Streptomyces virginiae); experiment: other fluorescence titration; tryptophan fluorescence quenching; VirC, VirD, VirD mutant or VirE at 5 μM in TE buffer (20 mM Tris-HCl pH 8.5, 2 mM EDTA), 25 °C, titrated with ACP ligand (0–150 μM); excitation 295 nm; one site-specific binding model; averaged data of two independent measurements
[6] = target: Se-VirD (Streptomyces virginiae); experiment: crystal structure; holo-ACP5b–Se-VirD complex, hanging drop, ratio 1:4, 100 mM calcium chloride, 30% PEG 1500, 10% 2-propanol, 100 mM imidazole-HCl pH 6.5; space group H3; 2.1 Å
[7] = target: Se-VirD (Streptomyces virginiae); experiment: crystal structure; Se-VirD alone, 20% PEG 400, 20% PEG 800, 100 mM Tris-HCl pH 7.5; space group P4(1)2(1)2; Se-SAD, 1.7 Å
[8] = target: VirD E128Q (Streptomyces virginiae); experiment: other fluorescence titration; tryptophan fluorescence quenching; VirC, VirD, VirD mutant or VirE at 5 μM in TE buffer (20 mM Tris-HCl pH 8.5, 2 mM EDTA), 25 °C, titrated with ACP ligand (0–150 μM); excitation 295 nm; one site-specific binding model; averaged data of two independent measurements

| Molecule | Kd [2] | Kd [3] | Kd [5] | further results |
| --- | --- | --- | --- | --- |
| VirD (enzyme) |  |  |  | stoichiometry N [1]: 3 |
| apo-Sna ACP7 (domain or fragment) | 166 µM | 78 µM |  |  |
| VirE (enzyme) |  |  |  | stoichiometry N [4]: 3 |
| holo-Sna ACP7 (domain or fragment) | 13 µM | 13 µM |  |  |
| holo-ACP5a-ACP5b didomain (domain or fragment) | 19 µM | 17 µM | 42 µM |  |
| holo-ACP7 (domain or fragment) | 4.3 µM | 18 µM | 22 µM |  |
| Se-VirD (enzyme) |  |  |  | stoichiometry N [6]: 3; stoichiometry N [7]: 3 |
| apo-ACP7 (domain or fragment) | 75 µM | 75 µM | 301 µM |  |
| B1 | 102 µM | 166 µM | 653 µM |  |
| B2 |  | 40 µM |  |  |
| B3 |  | 4.3 µM |  |  |
| B4 | 51 µM |  |  |  |
| B5 | 39 µM |  |  | Kd [8]: 33 µM |
| B6 |  |  | 287 µM |  |
| B7 |  |  | 30 µM |  |
| B8 | 186 µM | 108 µM |  |  |
| B9 | 6.1 µM | 4.7 µM |  |  |
| B10 | 83 µM | 89 µM |  |  |
| B11 | 4.1 µM | 11 µM |  |  |
| B12 | 117 µM | 61 µM |  |  |
| B13 | 7 µM | 10 µM |  |  |
| B14 | 178 µM | 77 µM | 171 µM |  |
| B15 | 2.9 µM | 3.8 µM | 6.8 µM |  |
